The text below walks through data of publication PMC4858697, “Crystal structure of TRAF1 TRAF domain and its implications in the TRAF1-mediated intracellular signaling pathway” (Scientific Reports, 2016).

B1: human TRAF1 TRAF domain (residues 220-416), containing the TRAF-N coiled-coil domain and the TRAF-C domain (domain or fragment, UniProt Q13077 220-416, looked up)
chain: HQSQLDRERILSLEQRVVELQQTLAQKDQALGKLEQSLRLMEEASFDGTFLWKITNVTRRCHESACGRTVSLFSPAFYTAKYGYKLCLRLYLNGDGTGKRTHLSLFIVIMRGEYDALLPWPFRNKVTFMLLDQNNREHAIDAFRPDLSSASFQRPQSETNVASGCPLFFPLSKLQSPKHAYVKDDTMFLKCIVETST
notes: TNF-receptor associated factor 1 (TRAF1), human, TRAF domain, amino acids 220-416, cloned into pET24a; Trimer in the crystal and in solution (SEC, MALS); also called wildtype TRAF1; not shown: His-tag, C-terminal, kept

Series [1] has as its target TANK peptide PEP (Homo sapiens) (UniProt Q92844). The following applies: cited from earlier work.
Series [2] concerns the molecule itself. The series is described as follows: SEC; Superdex 200 10/30 gel filtration in 20 mM sodium citrate pH 5.0, 1 M NaCl.
The target of series [3] is B1. The series is described as follows: ITC; NanoITC; 1 mM TANK peptide injected into ~20 uM wildtype or mutant TRAF1 in the cell; PBS; 15 °C; 25 injections; single site model. The following applies: both partners purified.

Sequence of TANK peptide PEP (Homo sapiens) (Q92844 178-198): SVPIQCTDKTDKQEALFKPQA

As to TRAF3 (from UniProt Q13114), the dissociation constant (Kd) in series [1] is 23.9 µM. On to B1, for which the “stoichiometry N” value in series [2] came to 3.

B2: TANK peptide (SVPIQCTDKT) (peptide)
peptide: SVPIQCTDKT
notes: also called I-TRAF; source: synthetic peptide (Peptron, Dae-jeon, South Korea)
For B2, the Kd in series [3] turned out to be 13.6 µM.

As usually defined, the Kd is the constant that tells how readily two partners part at equilibrium. By stoichiometry N is commonly meant a count of units in the complex or per binding partner.
